Assays:
[1] = target: T1, AtWRKY1-N (Arabidopsis, UniProt Q9SI37 108-169); test: ITC; ITC: 25 mM HEPES pH 7.0, 100 mM NaCl, 20 C, 0.25 mM protein into 0.026 mM DNA; EMSA: 25 mM HEPES pH 7.0, 100 mM NaCl, 5% glycerol, 6 pmol DNA in 6 ul, 4 C 20 min; conditions: protein: recombinant; tags: C-terminal His; blunt
[2] = target: T1, AtWRKY1-N; test: crystal structure; 3.0 A; zinc finger; ITC: 25 mM HEPES pH 7.0, 100 mM NaCl, 20 C, 0.25 mM protein into 0.026 mM DNA; EMSA: 25 mM HEPES pH 7.0, 100 mM NaCl, 5% glycerol, 6 pmol DNA in 6 ul, 4 C 20 min; conditions: protein: recombinant; tags: C-terminal His; 5' overhang 1 nt at each end
[3] = target: AtWRKY33-N (Arabidopsis, UniProt Q8S8P5 185-242); test: as above; conditions: protein: recombinant; tags: C-terminal His; 5' overhang 1 nt at each end
AtWRKY33-N, sequence (Q8S8P5 185-242): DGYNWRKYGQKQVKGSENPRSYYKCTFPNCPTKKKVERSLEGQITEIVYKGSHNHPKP

[4] = target: AtWRKY2-N (Arabidopsis, UniProt Q9FG77 270-332); test: crystal structure; 2.4 A; zinc finger; ITC: 25 mM HEPES pH 7.0, 100 mM NaCl, 20 C, 0.25 mM protein into 0.026 mM DNA; EMSA: 25 mM HEPES pH 7.0, 100 mM NaCl, 5% glycerol, 6 pmol DNA in 6 ul, 4 C 20 min; conditions: protein: recombinant; tags: C-terminal His; 5' overhang 1 nt at each end
AtWRKY2-N, sequence (Q9FG77 270-332): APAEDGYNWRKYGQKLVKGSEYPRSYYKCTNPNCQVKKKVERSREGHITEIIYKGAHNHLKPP

[5] = target: T1, AtWRKY1-N; test: ITC; ITC: 25 mM HEPES pH 7.0, 100 mM NaCl, 20 C, 0.25 mM protein into 0.026 mM DNA; EMSA: 25 mM HEPES pH 7.0, 100 mM NaCl, 5% glycerol, 6 pmol DNA in 6 ul, 4 C 20 min; conditions: protein: recombinant; tags: C-terminal His; blunt; remark: listed apart in the source
[6] = target: T1, AtWRKY1-N; test: as above; conditions: protein: recombinant; tags: C-terminal His; blunt; remark: listed apart in the source
[7] = target: AtWRKY1-N K122A (Arabidopsis, UniProt Q9SI37 108-169, K122A); test: EMSA; ITC: 25 mM HEPES pH 7.0, 100 mM NaCl, 20 C, 0.25 mM protein into 0.026 mM DNA; EMSA: 25 mM HEPES pH 7.0, 100 mM NaCl, 5% glycerol, 6 pmol DNA in 6 ul, 4 C 20 min; conditions: protein: recombinant; tags: C-terminal His; label: 5' Cy3 on strand 1; blunt
AtWRKY1-N K122A, sequence (Q9SI37 108-169 K122A): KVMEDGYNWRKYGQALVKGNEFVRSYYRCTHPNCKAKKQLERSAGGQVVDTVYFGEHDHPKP

[8] = target: AtWRKY1-N R135A (Arabidopsis, UniProt Q9SI37 108-169, R135A); test: as above; conditions: protein: recombinant; tags: C-terminal His; label: 5' Cy3 on strand 1; blunt
AtWRKY1-N R135A, sequence (Q9SI37 108-169 R135A): as the sequence (Q9SI37 108-169 K122A) above, with A15K, R28A counted along it

[9] = target: AtWRKY1-N Q121A (Arabidopsis, UniProt Q9SI37 108-169, Q121A); test: as above; conditions: protein: recombinant; tags: C-terminal His; label: 5' Cy3 on strand 1; blunt
AtWRKY1-N Q121A, sequence (Q9SI37 108-169 Q121A): as the sequence (Q9SI37 108-169 K122A) above, with Q14A, A15K counted along it

[10] = target: AtWRKY1-N K118A (Arabidopsis, UniProt Q9SI37 108-169, K118A); test: as above; conditions: protein: recombinant; tags: C-terminal His; label: 5' Cy3 on strand 1; blunt
AtWRKY1-N K118A, sequence (Q9SI37 108-169 K118A): as the sequence (Q9SI37 108-169 K122A) above, with K11A, A15K counted along it

[11] = target: AtWRKY1-N R117A (Arabidopsis, UniProt Q9SI37 108-169, R117A); test: as above; conditions: protein: recombinant; tags: C-terminal His; label: 5' Cy3 on strand 1; blunt
AtWRKY1-N R117A, sequence (Q9SI37 108-169 R117A): as the sequence (Q9SI37 108-169 K122A) above, with R10A, A15K counted along it

[12] = target: AtWRKY1-N Y119A (Arabidopsis, UniProt Q9SI37 108-169, Y119A); test: as above; conditions: protein: recombinant; tags: C-terminal His; label: 5' Cy3 on strand 1; blunt
AtWRKY1-N Y119A, sequence (Q9SI37 108-169 Y119A): as the sequence (Q9SI37 108-169 K122A) above, with Y12A, A15K counted along it

[13] = target: AtWRKY1-N Y133A (Arabidopsis, UniProt Q9SI37 108-169, Y133A); test: as above; conditions: protein: recombinant; tags: C-terminal His; label: 5' Cy3 on strand 1; blunt
AtWRKY1-N Y133A, sequence (Q9SI37 108-169 Y133A): as the sequence (Q9SI37 108-169 K122A) above, with A15K, Y26A counted along it

[14] = target: AtWRKY1-N K144A (Arabidopsis, UniProt Q9SI37 108-169, K144A); test: as above; conditions: protein: recombinant; tags: C-terminal His; label: 5' Cy3 on strand 1; blunt
AtWRKY1-N K144A, sequence (Q9SI37 108-169 K144A): as the sequence (Q9SI37 108-169 K122A) above, with A15K, K37A counted along it

[15] = target: AtWRKY1 101-339 (Arabidopsis, UniProt Q9SI37-2 101-339); test: ITC; N=0.5, two DNA per protein; 0.11 mM protein into 0.026 mM DNA; ITC: 25 mM HEPES pH 7.0, 100 mM NaCl, 20 C, 0.25 mM protein into 0.026 mM DNA; EMSA: 25 mM HEPES pH 7.0, 100 mM NaCl, 5% glycerol, 6 pmol DNA in 6 ul, 4 C 20 min; conditions: protein: recombinant; tags: C-terminal His; blunt
AtWRKY1 101-339, sequence (Q9SI37 other isoform, or with tags, fused parts or gaps): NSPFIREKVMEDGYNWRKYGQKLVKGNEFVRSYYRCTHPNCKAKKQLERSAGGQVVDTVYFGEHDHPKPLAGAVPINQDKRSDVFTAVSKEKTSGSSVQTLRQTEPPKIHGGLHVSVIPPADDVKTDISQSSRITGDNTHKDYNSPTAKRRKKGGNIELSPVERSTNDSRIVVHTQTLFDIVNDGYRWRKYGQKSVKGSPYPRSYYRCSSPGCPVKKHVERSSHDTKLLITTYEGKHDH

[16] = target: AtWRKY1-C (Arabidopsis, UniProt Q9SI37 301-366); test: ITC; ITC: 25 mM HEPES pH 7.0, 100 mM NaCl, 20 C, 0.25 mM protein into 0.026 mM DNA; EMSA: 25 mM HEPES pH 7.0, 100 mM NaCl, 5% glycerol, 6 pmol DNA in 6 ul, 4 C 20 min; conditions: protein: recombinant; tags: C-terminal His; blunt
AtWRKY1-C, sequence (Q9SI37 301-366): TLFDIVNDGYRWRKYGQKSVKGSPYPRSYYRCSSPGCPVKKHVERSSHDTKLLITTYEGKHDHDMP

T1 sequence (Q9SI37 108-169): as the sequence (Q9SI37 108-169 K122A) above, with A15K counted along it

B1: T8' to A8' (dsDNA)
DNA 1: CGCCTTTGTCCAGCGC
DNA 2: GCGCTGGACAAAGGCG
- binding signal [1]: 12 fold decrease in affinity vs W-box

B2: W-box DNA for crystallization (15 bp) (dsDNA)
DNA 1: AGCCTTTGACCAGCG
DNA 2: TCGCTGGTCAAAGGC
- binding result [2]: binds
- binding result [3]: binds
- binding result [4]: binds

B3: G7'C9' to A7'A9' (dsDNA)
DNA 1: CGCCTTTTATCAGCGC
DNA 2: GCGCTGATAAAAGGCG
- Kd [5]: 7600 nM

B4: T6T7 to C6G7 (dsDNA)
DNA 1: CGCCTCGGACCAGCGC
DNA 2: GCGCTGGTCCGAGGCG
- binding signal [1]: 4.5 fold decrease in affinity vs W-box

B5: G6' to T6' (dsDNA)
DNA 1: GCGCTTGTCAAAGGCG
DNA 2: CGCCTTTGACAAGCGC
- binding signal [6]: 2.5 fold decrease in affinity vs W-box

B6: W-box DNA for EMSA (dsDNA)
DNA 1: CGCCTTTGACCAGCGC
DNA 2: GCGCTGGTCAAAGGCG
- binding result [7]: no binding
- binding result [8]: no binding
- binding result [9]: no binding
- binding result [10]: binds
- binding result [11]: binds
- binding result [12]: binds
- binding result [13]: no binding
- binding result [14]: no binding

B7: W-box DNA for ITC (dsDNA)
DNA 1: CGCCTTTGACCAGCGC
DNA 2: GCGCTGGTCAAAGGCG
- Kd [15]: 500 nM
- Kd [5]: ~100 nM
- Kd [16]: 1300 nM

Reference: article PMC7026264, “Crystal structures of N-terminal WRKY transcription factors and DNA complexes”
